1 molecule from patent publication US20190062427A1 can be followed below.

The target of experiment [1] is human Siglec-9 expressed on human cells (human) (UniProt Q9Y336). Nature of the experiment: cell-based or functional assay.
For experiment [2] the target is unchanged. Nature of the experiment: flow cytometry on human primary monocytes, 10 ug/ml mAb, PE secondary. A general note: A flow cytometer gives signals particle by particle.
The target is the same in experiment [3]. Nature of the experiment: flow cytometry on human primary macrophages, 10 ug/ml mAb, PE secondary.
Experiment [4] shares this target. Nature of the experiment: flow cytometry on human primary dendritic cells, 10 ug/ml mAb, PE secondary.
Experiment [5] addresses Histidine-tagged human Siglec-9 (NovoProtein) (human) (UniProt Q9Y336). The experiment in a line: SPR Biacore T200, 25 C, 25 nM mAb captured on anti-mouse IgG CM5 chip, His-tagged Siglec-9 200 nM as analyte, single-concentration 1:1 fit. Background: In SPR one partner is held on a chip, and binding of the other changes the refractive index at the surface.
The target of experiment [6] is Siglec-9-Fc (R&D Systems, catalog number 1139-SL-050) (human) (UniProt Q9Y336). The experiment in a line: FACS ligand competition: 25 ug/ml mAb pre-coupled with 25 ug/ml Siglec-9-Fc, binding to sialic acid ligands on U937 cells, anti-human IgG-PE.
Chain of Siglec-9-Fc (R&D Systems, catalog number 1139-SL-050) (human) (Q9Y336 18-348 limits assumed): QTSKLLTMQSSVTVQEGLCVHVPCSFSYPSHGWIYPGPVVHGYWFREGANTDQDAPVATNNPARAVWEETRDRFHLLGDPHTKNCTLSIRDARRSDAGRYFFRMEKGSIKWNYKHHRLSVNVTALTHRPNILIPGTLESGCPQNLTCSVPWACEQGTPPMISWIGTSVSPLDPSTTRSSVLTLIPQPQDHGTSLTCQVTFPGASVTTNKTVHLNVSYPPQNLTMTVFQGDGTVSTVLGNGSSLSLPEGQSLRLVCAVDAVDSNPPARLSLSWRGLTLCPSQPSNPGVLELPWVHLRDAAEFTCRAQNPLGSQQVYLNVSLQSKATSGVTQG

The term Kd denotes the concentration at which binding is half-saturated. Low readings indicate a tighter complex, high ones a looser complex.

Chain of human Siglec-9 expressed on human cells (human) (Q9Y336 18-463): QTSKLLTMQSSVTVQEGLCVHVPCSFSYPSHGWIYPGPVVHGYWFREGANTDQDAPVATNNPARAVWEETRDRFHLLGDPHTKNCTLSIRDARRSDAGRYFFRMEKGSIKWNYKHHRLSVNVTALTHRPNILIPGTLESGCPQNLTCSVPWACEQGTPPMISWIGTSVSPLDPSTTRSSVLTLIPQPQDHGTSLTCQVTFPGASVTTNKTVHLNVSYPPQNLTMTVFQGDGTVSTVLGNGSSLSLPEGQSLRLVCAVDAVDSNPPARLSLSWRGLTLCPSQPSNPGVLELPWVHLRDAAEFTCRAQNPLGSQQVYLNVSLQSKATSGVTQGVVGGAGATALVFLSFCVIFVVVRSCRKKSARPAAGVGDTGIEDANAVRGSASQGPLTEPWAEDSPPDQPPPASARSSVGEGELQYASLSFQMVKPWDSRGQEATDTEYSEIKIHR
Chain of Histidine-tagged human Siglec-9 (NovoProtein) (human) (Q9Y336 18-348 limits assumed): as the sequence (Q9Y336 18-348 limits assumed) above

B1: anti-Siglec-9 antibody 6D8 (antibody, IgG2b, V domains shown, part only)
VH: VQLQQSGAELVKPGASVKLSCKASGYTFTSYWMHWVKQRPGQGLEWIGEIDPSDSYTYYNQKFKGKATLTVDKSSSTAYMQLSSLTSEDSAVYYCAAYYSNYVRAYWGQGTLVTVSA
VL: DIQKPQSPFYMCVSGGETISISSHTTRGIYWYKGGSAEKPEKPFKLEIYCARNGEGGAPSRFSGRGSGTDFSLTINRGESEDCAEYYCAQFYQFPWTFGGGTKLEIK
In experiment [1], B1 registered a Percent Siglec-9 Surface Expression, DCs (% Siglec-9) of 60.2%; a Percent Siglec-9 Surface Expression, Macrophages (% Siglec-9) of 21.3%; a Percent Siglec-9 Surface Expression, Microglia (% Siglec-9) of 45.4%; a Percent Siglec-9 Surface Expression, Monocytes (% Siglec-9) of 42.2%. In addition, the Percent Siglec-9 Surface Expression, THP-1 cells (% Siglec-9) in experiment [1] was found to be 62.6%. In experiment [2], the % Positive was found to be 29.6% and the MFI turned out to be 198. In experiment [3], this molecule displayed a % Positive of 93.5% and an MFI of 473. Also, in experiment [4], the % Positive worked out at 27.6% and the MFI amounted to 197. Moreover, in experiment [5], the Kd was 6.7 nM. Also, the Percent Siglec-9-Fc Binding in experiment [6] turned out to be 97.8%.
